This is an account of results in the RNAGym collection of RNA variant scans (doi:10.1093/nar/gkz1192).

First the molecules themselves.
B1: CPEB3 Ribozyme (parent)
chain: UAACAGGGGGCCACAGCAGAAGCGUUCACGUCGCAGCCCCUGUCAGAUUCUGGUGAAUCUGCGAAUUCUGCUGUAUAUCUC

The variants in this series derive from B1. Nature of the series: self-cleavage, relative activity (ratio to wild type); higher = more cleavage; in vitro, sequencing. Summed up: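 Libraries of CPEB3 self-cleaving ribozyme mutants came from rounds of error-prone PCR and carried barcodes, which DNA sequencing matched to variants. In vitro transcription used T7 RNA polymerase at 37°C for 5 hours, with a further 15 min in DNase I before EDTA stopped the reaction; the ribozymes cleaved during both steps. The RNA was reverse transcribed with template switching and sequenced on Illumina. Relative activity is the cleaved/total read fraction of a variant divided by that of the unmutated ribozyme, averaged over three batches with at least 5 reads.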
In the case of C34U A64U, the self-cleavage turned out to be 0.13.
Consider C34U A64G, for which the self-cleavage was determined as 0.45.
Consider C34A A35G, for which the self-cleavage amounted to 1.07.
Consider G33C U69C, for which the self-cleavage worked out at 0.13.
In the case of G33C U69A, the self-cleavage stood at 0.07.
Regarding A35C U43A, the self-cleavage is 1.06.
In the case of A35C U43C it was 0.35.
As for G33U, the self-cleavage is 0.24.
For the variant G33C, the self-cleavage was 0.23.
For G33U U51G, the self-cleavage came to 0.09.
Consider G33U U51C, for which the self-cleavage came to 0.09.
In the case of G33A U76C, the self-cleavage is 0.19.
With C34U U80C, the self-cleavage turned out to be 0.58.
As to C34U U80A, the self-cleavage amounted to 0.51.
Take C34U U80G: the self-cleavage came out at 0.27.
In the case of C34A U54A it was 0.17.
Take G33A G52C: the self-cleavage stood at 0.12.
As to G33A G52A, the self-cleavage is 0.3.
Consider G33A G42U, for which the self-cleavage came out at 0.39.
Take A35C G55U: the self-cleavage came to 0.81.
As to G33U U76C, the self-cleavage is 0.32.
For the variant G33U U49G, the self-cleavage is 0.2.
The same measure for G33U U49C: 0.15.
Take G33U U48C: the self-cleavage worked out at 0.08.
Take G33C C62U: the self-cleavage was 0.14.
C34G A35G: the self-cleavage came to 0.86.
Take G33A G61A: the self-cleavage amounted to 0.14.
Regarding C34G A56G, the self-cleavage is 0.18.
Consider G33C U43A, for which the self-cleavage is 0.18.
In the case of G33C U43C it was 0.22.
As to C34G C44A, the self-cleavage is 0.1.
Regarding G33A C62A, the self-cleavage stood at 0.37.
In the case of G33A C62U it was 0.11; in that of C34G C71U, 0.52.
The same measure for G33C A35G: 0.22.
As for G33C A35U, the self-cleavage amounted to 0.14.
Consider A35C C81U, for which the self-cleavage amounted to 0.93.
As for C34U U67C, the self-cleavage turned out to be 0.12.
C34U U67G: the self-cleavage was 0.12.
Take C34U U67A: the self-cleavage stood at 0.42.
Take C34U U51G: the self-cleavage stood at 0.54.
C34U U51A: the self-cleavage came to 0.34.
Regarding G33U U43C, the self-cleavage is 0.48.
The same measure for A35G A57U: 1.22.
The same measure for A35G A57G: 1.27.
In the case of C34U G61U it was 0.19.
As for A35G C37G, the self-cleavage is 0.89.
The same measure for A35G C37A: 0.86; for G33A U49C: 0.28; for G33A U49A: 0.29.
Turning to C34G U49C, the self-cleavage was 0.07.
Take C34G U49A: the self-cleavage turned out to be 0.24.
The same measure for G33A U78A: 0.04.
Turning to G33A U78C, the self-cleavage worked out at 0.2.
The same measure for G33A U66A: 0.18; for G33A U66C: 0.31; for A35C A47U: 0.63.
For A35C A47G, the self-cleavage turned out to be 0.81.
Consider G33A U74A, for which the self-cleavage came out at 0.33.
With G33A U74C, the self-cleavage stood at 0.57.
In the case of C34U A47U it was 0.17; in that of C34U A47C, 0.41; in that of C34U A47G, 0.43.
The same measure for G33U U69C: 0.2; for A35C A77U: 1.07; for G33A G73A: 0.51.
The same measure for G33C A65C: 0.1; for G33C A65G: 0.18.
As to G33A U48C, the self-cleavage was 0.26.
With G33A U48G, the self-cleavage was found to be 0.18.
For the variant A35C C40A, the self-cleavage is 0.6.
As for G33U U41C, the self-cleavage was determined as 0.25.
For G33U U41A, the self-cleavage stood at 0.18.
C34U G36U: the self-cleavage came out at 0.14.
In the case of G33C G52A it was 0.19; in that of G33C U51C, 0.44.
G33C U51A: the self-cleavage amounted to 0.15.
In the case of G33A U54C it was 0.15; in that of G33A U54A, 0.18.
In the case of C34U G63A it was 0.27; in that of C34U G63U, 0.38.
The same measure for G33C A56U: 0.14.
With G33C A56G, the self-cleavage amounted to 0.12.
On to C34A A45G, for which the self-cleavage amounted to 0.37.
C34A A45C: the self-cleavage came to 0.19.
As for C34A U48C, the self-cleavage worked out at 0.13.
Regarding C34G U41C, the self-cleavage worked out at 0.14.
In the case of G33C U54C, the self-cleavage was 0.13.
In the case of G33A U67A it was 0.15; in that of G33A U67C, 0.22; in that of G33U U60C, 0.11.
In the case of G33U U60A, the self-cleavage worked out at 0.48.
On to C34U A56U, for which the self-cleavage came out at 0.34.
On to C34U A56G, for which the self-cleavage worked out at 0.48.
A35G C39A: the self-cleavage was found to be 0.95.
On to A35G C39U, for which the self-cleavage came out at 1.21.
On to A35G C39G, for which the self-cleavage is 0.59.
Turning to A35C A57C, the self-cleavage was 0.28.
A35C A57G: the self-cleavage is 0.93.
With A35C A45C, the self-cleavage stood at 0.31.
The same measure for A35C A45U: 0.24.
Consider A35G C40U, for which the self-cleavage was 1.23.
On to A35G C40G, for which the self-cleavage came out at 0.66.
As for A35G C40A, the self-cleavage is 0.55.
In the case of G33U A35U it was 0.15; in that of G33A U41C, 0.39; in that of G33A U41A, 0.41.
On to C34U U58C, for which the self-cleavage came out at 0.16.
As for C34U U74C, the self-cleavage worked out at 0.84.
For C34U U74A, the self-cleavage stood at 0.52.
As to G33A C79A, the self-cleavage stood at 0.23.
The same measure for A35G C38U: 1.23.
The same measure for A35G C38G: 0.96; for A35G C38A: 1.21.
In the case of G33U A64G, the self-cleavage came out at 0.12.
Regarding G33C U80C, the self-cleavage came to 0.27.
Regarding C34A A56U, the self-cleavage was 0.43.
Consider C34A A56G, for which the self-cleavage turned out to be 0.22.
As for A35C C38A, the self-cleavage amounted to 0.2.
In the case of G33U U66A it was 0.16; in that of G33U U66C, 0.13; in that of C34A U67C, 0.29.
For the variant C34A U67A, the self-cleavage is 0.33.
With G33A U60A, the self-cleavage was determined as 0.15.
G33A U60C: the self-cleavage was found to be 0.24.
As for C34A A57G, the self-cleavage came out at 0.35.
For the variant C34U U54C, the self-cleavage was 0.44.
With C34U U54A, the self-cleavage came out at 0.24.
Regarding A35C A56U, the self-cleavage stood at 0.53.
For A35C A56G, the self-cleavage was 0.77.
In the case of C34G A45C it was 0.19; in that of G33C U67A, 0.17; in that of G33C U67C, 0.12.
In the case of G33C G53C, the self-cleavage was found to be 0.07.
Take G33C U72A: the self-cleavage turned out to be 0.09.
Regarding G33C U72C, the self-cleavage amounted to 0.19.
A35C A64U: the self-cleavage was 0.25.
Regarding A35C A64G, the self-cleavage turned out to be 0.3.
As for G33U G36U, the self-cleavage amounted to 0.13.
Turning to C34A G46U, the self-cleavage was 0.15.
Consider G33C A47G, for which the self-cleavage is 0.08.
Regarding C34U U43A, the self-cleavage is 0.51.
For the variant C34U U43C, the self-cleavage was 0.22.
Regarding C34A U69C, the self-cleavage came to 0.07.
The same measure for C34A U69A: 0.07; for C34U U48C: 0.47.
With C34U U48G, the self-cleavage worked out at 0.3.
For the variant G33U U80A, the self-cleavage came to 0.25.
Regarding G33U U80C, the self-cleavage was found to be 0.44.
For G33U C38A, the self-cleavage came out at 0.2.
Consider G33U C38U, for which the self-cleavage worked out at 0.36.
With C34U U60A, the self-cleavage was 0.14.
With C34U U60C, the self-cleavage stood at 0.11.
As to A35G A56U, the self-cleavage amounted to 1.24.
In the case of A35G A56G it was 1.27; in that of A35G A56C, 1.27.
On to C34G U48C, for which the self-cleavage was found to be 0.21.
Take C34U U66C: the self-cleavage worked out at 0.35.
In the case of C34G U80C it was 0.24.
In the case of G33A G36A, the self-cleavage came to 0.07.
Regarding A35G, the self-cleavage is 1.27.
In the case of A35C it was 0.85; in that of G33A C68U, 0.19.
For G33A C68G, the self-cleavage amounted to 0.11.
In the case of G33C G36C, the self-cleavage was 0.15.
The same measure for C34U A75G: 0.18.
Regarding C34U A65G, the self-cleavage was found to be 0.34.
